US20210246166A1 (Bayer, published 2021)
Numbered stars: 1 amine (or outer) side, 2 acyl side, 3 side chain; on linkers, the order of the positions; unused ones are H or OH. Bridge positions count the residues as written; N and C are the ends. Square brackets hold non-standard residues; d marks the D form. Primed or numbered codes have the meaning given here. Ends that are not written are not given here. * marks the point of attachment. Leu(4-F)″ = 4-fluoro-L-leucine, CC(C)(F)C[C@H](N[*:1])C(=O)[*:2]; Piperidin‑4‑ylacetic acid = O=C(CC1CCNCC1)*; Oic = O=C(O)[C@@H]1C[C@@H]2CCCC[C@@H]2N1; Phe(2-Cl) = N[C@@H](Cc1ccccc1Cl)C(=O)O; Gly(cPent) = N[C@H](C(=O)O)C1CCCC1; NMeI = CC[C@H](C)[C@H](NC)C(=O)O; tBuAla = CC(C)(C)C[C@H](N)C(=O)O; Chg = N[C@H](C(=O)O)C1CCCCC1; NMePro = CN1CCC[C@H]1C(=O)*; NMeC = CN[C@@H](CS)C(=O)O; NMeA = CN[C@@H](C)C(=O)O; Orn = NCCC[C@H](N)C(=O)O; Sar = CNCC(=O)O

T1: recombinant rat MASP1 active protease (amino acids 302-704, C-terminal His Tag) (rat, UniProt Q8CHN8 302-704)
T1 sequence: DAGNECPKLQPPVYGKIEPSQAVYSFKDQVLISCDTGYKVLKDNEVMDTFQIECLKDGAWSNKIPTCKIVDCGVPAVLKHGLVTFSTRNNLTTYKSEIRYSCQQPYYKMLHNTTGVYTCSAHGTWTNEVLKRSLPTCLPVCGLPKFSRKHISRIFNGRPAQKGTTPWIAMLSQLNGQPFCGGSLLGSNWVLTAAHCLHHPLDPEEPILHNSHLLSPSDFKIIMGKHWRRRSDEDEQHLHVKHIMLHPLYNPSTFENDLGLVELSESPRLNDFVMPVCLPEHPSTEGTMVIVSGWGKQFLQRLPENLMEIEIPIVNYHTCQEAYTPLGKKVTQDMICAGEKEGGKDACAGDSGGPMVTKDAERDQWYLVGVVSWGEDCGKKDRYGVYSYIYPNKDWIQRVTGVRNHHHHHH

B1: Example 231: AIC+SRS-((tBu)A)-P-(Oic)-I-((N-Me)C)+IPD-OH (peptide)
peptide: AICSRS[tBuAla]P[Oic]I[NMeC]IPD-OH
modifications: disulfide 3-11; N-terminus assumed
SMILES: CC[C@H](C)[C@H](NC(=O)[C@H](C)N)C(=O)N[C@H]1CSSC[C@@H](C(=O)N[C@H](C(=O)N2CCC[C@H]2C(=O)N[C@@H](CC(=O)O)C(=O)O)[C@@H](C)CC)N(C)C(=O)[C@H]([C@@H](C)CC)NC(=O)[C@@H]2C[C@@H]3CCCC[C@@H]3N2C(=O)[C@@H]2CCCN2C(=O)[C@H](CC(C)(C)C)NC(=O)[C@H](CO)NC(=O)[C@H](CCCNC(=N)N)NC(=O)[C@H](CO)NC1=O
B2: Example 234: AIC+SRS-((tBu)A)-P-(Oic)-I-C+IPD-NH2 (peptide)
peptide: AICSRS[tBuAla]P[Oic]ICIPD-NH2
modifications: disulfide 3-11; N-terminus assumed
SMILES: CC[C@H](C)[C@H](NC(=O)[C@H](C)N)C(=O)N[C@H]1CSSC[C@@H](C(=O)N[C@H](C(=O)N2CCC[C@H]2C(=O)N[C@@H](CC(=O)O)C(N)=O)[C@@H](C)CC)NC(=O)[C@H]([C@@H](C)CC)NC(=O)[C@@H]2C[C@@H]3CCCC[C@@H]3N2C(=O)[C@@H]2CCCN2C(=O)[C@H](CC(C)(C)C)NC(=O)[C@H](CO)NC(=O)[C@H](CCCNC(=N)N)NC(=O)[C@H](CO)NC1=O
B3: Example 236: (Orn)-IC+SRSLPPIC+I-NH2 (peptide)
peptide: [Orn]ICSRSLPPICI-NH2
modifications: disulfide 3-11; N-terminus assumed
SMILES: CC[C@H](C)[C@H](NC(=O)[C@@H]1CSSC[C@H](NC(=O)[C@@H](NC(=O)[C@@H](N)CCCN)[C@@H](C)CC)C(=O)N[C@@H](CO)C(=O)N[C@@H](CCCNC(=N)N)C(=O)N[C@@H](CO)C(=O)N[C@@H](CC(C)C)C(=O)N2CCC[C@H]2C(=O)N2CCC[C@H]2C(=O)N[C@@H]([C@@H](C)CC)C(=O)N1)C(N)=O
B4: Example 238: AIC+SRS-((2-Chloro)F)-PPI-((N-Me)C)+IPD-NH2 (peptide)
peptide: AICSRS[Phe(2-Cl)]PPI[NMeC]IPD-NH2
modifications: disulfide 3-11; N-terminus assumed
SMILES: CC[C@H](C)[C@H](NC(=O)[C@H](C)N)C(=O)N[C@H]1CSSC[C@@H](C(=O)N[C@H](C(=O)N2CCC[C@H]2C(=O)N[C@@H](CC(=O)O)C(N)=O)[C@@H](C)CC)N(C)C(=O)[C@H]([C@@H](C)CC)NC(=O)[C@@H]2CCCN2C(=O)[C@@H]2CCCN2C(=O)[C@H](Cc2ccccc2Cl)NC(=O)[C@H](CO)NC(=O)[C@H](CCCNC(=N)N)NC(=O)[C@H](CO)NC1=O
B5: Example 241: AIC+SRSL-((4aR,6aR,9S,11aS)-11-Oxo-2,3,4,4a,6a,7,8,9,11,11a-decahydro-1H-pyrido[3,2-e]pyrrolo[1,2-a]azepine-9-carboxylic acid)-IC+IPD-NH2 (peptide)
peptide: AICSRSL[(4aR,6aR,9S,11aS)‑11‑Oxo‑2,3,4,4a,6a,7,8,9,11,11a‑decahydro‑1H‑pyrido(3,2-e)pyrrolo(1,2-a)azepine‑9‑carboxylic acid]ICIPD-NH2
modifications: disulfide 3-10
B6: Example 243: ((N,N-diMe)A)-IC+SRS-((tBu)A)-PPIC+IPD-NH2 (peptide)
peptide: [(N,N-diMe)A]ICSRS[tBuAla]PPICIPD-NH2
modifications: disulfide 3-11
B7: Example 246: ((N-Me)G)-IC+SRS-((tBu)A)-PPIC+IPD-OH (peptide)
peptide: [Sar]ICSRS[tBuAla]PPICIPD-OH
modifications: disulfide 3-11; N-terminus assumed
SMILES: CC[C@H](C)[C@H](NC(=O)CNC)C(=O)N[C@H]1CSSC[C@@H](C(=O)N[C@H](C(=O)N2CCC[C@H]2C(=O)N[C@@H](CC(=O)O)C(=O)O)[C@@H](C)CC)NC(=O)[C@H]([C@@H](C)CC)NC(=O)[C@@H]2CCCN2C(=O)[C@@H]2CCCN2C(=O)[C@H](CC(C)(C)C)NC(=O)[C@H](CO)NC(=O)[C@H](CCCNC(=N)N)NC(=O)[C@H](CO)NC1=O
B8: Example 247: AIC+SRSLPP-(Chg)-C+I-NH2 (peptide)
peptide: AICSRSLPP[Chg]CI-NH2
modifications: disulfide 3-11; N-terminus assumed
SMILES: CC[C@H](C)[C@H](NC(=O)[C@@H]1CSSC[C@H](NC(=O)[C@@H](NC(=O)[C@H](C)N)[C@@H](C)CC)C(=O)N[C@@H](CO)C(=O)N[C@@H](CCCNC(=N)N)C(=O)N[C@@H](CO)C(=O)N[C@@H](CC(C)C)C(=O)N2CCC[C@H]2C(=O)N2CCC[C@H]2C(=O)N[C@@H](C2CCCCC2)C(=O)N1)C(N)=O
B9: Example 248: AIC+SRS-((4-Fluoro)L)-PPIC+IPD-NH2 (peptide)
peptide: AICSRS[Leu(4-F)″]PPICIPD-NH2
modifications: disulfide 3-11; N-terminus assumed
SMILES: CC[C@H](C)[C@H](NC(=O)[C@H](C)N)C(=O)N[C@H]1CSSC[C@@H](C(=O)N[C@H](C(=O)N2CCC[C@H]2C(=O)N[C@@H](CC(=O)O)C(N)=O)[C@@H](C)CC)NC(=O)[C@H]([C@@H](C)CC)NC(=O)[C@@H]2CCCN2C(=O)[C@@H]2CCCN2C(=O)[C@H](CC(C)(C)F)NC(=O)[C@H](CO)NC(=O)[C@H](CCCNC(=N)N)NC(=O)[C@H](CO)NC1=O
B10: Example 250: ((N-Me)P)-IC+SRS-((tBu)A)-PPIC+IPD-NH2 (peptide)
peptide: [NMePro]ICSRS[tBuAla]PPICIPD-NH2
modifications: disulfide 3-11
SMILES: CC[C@H](C)[C@H](NC(=O)[C@@H]1CCCN1C)C(=O)N[C@H]1CSSC[C@@H](C(=O)N[C@H](C(=O)N2CCC[C@H]2C(=O)N[C@@H](CC(=O)O)C(N)=O)[C@@H](C)CC)NC(=O)[C@H]([C@@H](C)CC)NC(=O)[C@@H]2CCCN2C(=O)[C@@H]2CCCN2C(=O)[C@H](CC(C)(C)C)NC(=O)[C@H](CO)NC(=O)[C@H](CCCNC(=N)N)NC(=O)[C@H](CO)NC1=O
B11: Example 253: ((N-Me)A)-IC+SRS-((tBu)A)-PPIC+IPD-NH2 (peptide)
peptide: [NMeA]ICSRS[tBuAla]PPICIPD-NH2
modifications: disulfide 3-11; N-terminus assumed
SMILES: CC[C@H](C)[C@H](NC(=O)[C@H](C)NC)C(=O)N[C@H]1CSSC[C@@H](C(=O)N[C@H](C(=O)N2CCC[C@H]2C(=O)N[C@@H](CC(=O)O)C(N)=O)[C@@H](C)CC)NC(=O)[C@H]([C@@H](C)CC)NC(=O)[C@@H]2CCCN2C(=O)[C@@H]2CCCN2C(=O)[C@H](CC(C)(C)C)NC(=O)[C@H](CO)NC(=O)[C@H](CCCNC(=N)N)NC(=O)[C@H](CO)NC1=O
B12: Example 254: AIC+SRSLPP-(Chg)-C+IPD-NH2 (peptide)
peptide: AICSRSLPP[Chg]CIPD-NH2
modifications: disulfide 3-11; N-terminus assumed
SMILES: CC[C@H](C)[C@H](NC(=O)[C@H](C)N)C(=O)N[C@H]1CSSC[C@@H](C(=O)N[C@H](C(=O)N2CCC[C@H]2C(=O)N[C@@H](CC(=O)O)C(N)=O)[C@@H](C)CC)NC(=O)[C@H](C2CCCCC2)NC(=O)[C@@H]2CCCN2C(=O)[C@@H]2CCCN2C(=O)[C@H](CC(C)C)NC(=O)[C@H](CO)NC(=O)[C@H](CCCNC(=N)N)NC(=O)[C@H](CO)NC1=O
B13: Example 259: (Piperidin-4-ylacetic acid)-IC+SRS-((tBu)A)-PPI-((N-Me)C)+I-NH2 (peptide)
peptide: {Piperidin‑4‑ylacetic acid}-ICSRS[tBuAla]PPI[NMeC]I-NH2
modifications: disulfide 2-10
SMILES: CC[C@H](C)[C@H](NC(=O)[C@@H]1CSSC[C@H](NC(=O)[C@@H](NC(=O)CC2CCNCC2)[C@@H](C)CC)C(=O)N[C@@H](CO)C(=O)N[C@@H](CCCNC(=N)N)C(=O)N[C@@H](CO)C(=O)N[C@@H](CC(C)(C)C)C(=O)N2CCC[C@H]2C(=O)N2CCC[C@H]2C(=O)N[C@@H]([C@@H](C)CC)C(=O)N1C)C(N)=O
B14: Example 260: A-((N-Me)I)-C+SRSLPPIC+IPD-NH2 (peptide)
peptide: A[NMeI]CSRSLPPICIPD-NH2
modifications: disulfide 3-11; N-terminus assumed
SMILES: CC[C@H](C)[C@@H]1NC(=O)[C@@H]2CCCN2C(=O)[C@@H]2CCCN2C(=O)[C@H](CC(C)C)NC(=O)[C@H](CO)NC(=O)[C@H](CCCNC(=N)N)NC(=O)[C@H](CO)NC(=O)[C@@H](NC(=O)[C@H]([C@@H](C)CC)N(C)C(=O)[C@H](C)N)CSSC[C@@H](C(=O)N[C@H](C(=O)N2CCC[C@H]2C(=O)N[C@@H](CC(=O)O)C(N)=O)[C@@H](C)CC)NC1=O
B15: Example 261: G-((N-Me)I)-C+SRSLPPIC+IPD-NH2 (peptide)
peptide: G[NMeI]CSRSLPPICIPD-NH2
modifications: disulfide 3-11; N-terminus assumed
SMILES: CC[C@H](C)[C@@H]1NC(=O)[C@@H]2CCCN2C(=O)[C@@H]2CCCN2C(=O)[C@H](CC(C)C)NC(=O)[C@H](CO)NC(=O)[C@H](CCCNC(=N)N)NC(=O)[C@H](CO)NC(=O)[C@@H](NC(=O)[C@H]([C@@H](C)CC)N(C)C(=O)CN)CSSC[C@@H](C(=O)N[C@H](C(=O)N2CCC[C@H]2C(=O)N[C@@H](CC(=O)O)C(N)=O)[C@@H](C)CC)NC1=O
B16: Example 262: AIC+SRSLPP-(Cpg)-C+IPD-NH2 (peptide)
peptide: AICSRSLPP[Gly(cPent)]CIPD-NH2
modifications: disulfide 3-11; N-terminus assumed
SMILES: CC[C@H](C)[C@H](NC(=O)[C@H](C)N)C(=O)N[C@H]1CSSC[C@@H](C(=O)N[C@H](C(=O)N2CCC[C@H]2C(=O)N[C@@H](CC(=O)O)C(N)=O)[C@@H](C)CC)NC(=O)[C@H](C2CCCC2)NC(=O)[C@@H]2CCCN2C(=O)[C@@H]2CCCN2C(=O)[C@H](CC(C)C)NC(=O)[C@H](CO)NC(=O)[C@H](CCCNC(=N)N)NC(=O)[C@H](CO)NC1=O

Biological target: T1, recombinant rat MASP1 active protease …
Assay: cell-based or functional assay

Binder | rat MASP1 IC50 [nM]
B1 | 38
B2 | 78
B3 | 890
B4 | 150
B5 | 130
B6 | 140
B7 | 78
B8 | 700
B9 | 260
B10 | 77
B11 | 130
B12 | 320
B13 | 27
B14 | 160
B15 | 300
B16 | 490
